Measured values as given in FireProtDB (doi:10.1021/bi00011a035).

Details: Aspergillus oryzae (strain ATCC 42149 / RIB 40), 25 °C, GdnHCl, Absorbance, reversible: yes, whole UniProt chain shown

B1: Guanyl-specific ribonuclease T1 wild type, P00651 (protein)
chain: MMYSKLLTLTTLLLPTALALPSLVERACDYTCGSNCYSSSDVSTAQAAGYQLHEDGETVGSNSYPHKYNNYEGFDFSVSSPYYEWPILSSGDVYSGGSPGADRVVFNENNQLAGVITHTGASGNNFVECT
denaturant m value (pH 3, beta-alanine 0.1 M): 1.85 kcal/mol/M | denaturant midpoint (higher = more stable) (pH 3, beta-alanine 0.1 M): 2.42 M | unfolding free energy (pH 3, beta-alanine 0.1 M): 4.48 kcal/mol | denaturant m value (pH 3.5, beta-alanine 0.1 M): 1.7 kcal/mol/M | denaturant midpoint (higher = more stable) (pH 3.5, beta-alanine 0.1 M): 3.4 M | unfolding free energy (pH 3.5, beta-alanine 0.1 M): 5.78 kcal/mol | denaturant m value (pH 6, Bis-Tris 0.1 M): 1.36 kcal/mol/M | denaturant midpoint (higher = more stable) (pH 6, Bis-Tris 0.1 M): 6.49 M | unfolding free energy (pH 6, Bis-Tris 0.1 M): 8.82 kcal/mol | denaturant m value (pH 7, HEPES 0.1 M): 1.28 kcal/mol/M | denaturant midpoint (higher = more stable) (pH 7, HEPES 0.1 M): 7.26 M | unfolding free energy (pH 7, HEPES 0.1 M): 9.26 kcal/mol | denaturant m value (pH 8.5, taurine 0.1 M): 1.21 kcal/mol/M | denaturant midpoint (higher = more stable) (pH 8.5, taurine 0.1 M): 7.69 M | unfolding free energy (pH 8.5, taurine 0.1 M): 9.3 kcal/mol
